How the values were obtained:
[1] = target: WMHBV myr-preS1-Al633-peptide; test: Al633 fluorescence of labelled myr-preS1-peptide bound to transfected HEK293 cells; details: 10 nM peptide, 20 min, 37°C, read off a plot
[2] = target: HBV myr-preS1-Al633-peptide (UniProt P03138); test: as above; details: 10 nM peptide, 20 min, 37°C, read off a plot

Callithrix jacchus (common marmoset) Ntcp, wild type (from UniProt F7HA36) G158R
response ([1]; parent: est. 20000): 11000 rfu

Callithrix jacchus (common marmoset) Ntcp, wild type (from UniProt F7HA36) G158S
response ([1]; parent: est. 20000): 14000 rfu

Chlorocebus aethiops (grivet) Ntcp, wild type (from UniProt A0A0U3VGV8) R158G
response ([1]; parent: est. 11000): 20000 rfu

Macaca fascicularis (crab-eating macaque) Ntcp, wild type R158G
response ([1]; parent: est. 11000): 18000 rfu | response ([2]; parent: est. 11000): 25000 rfu

Macaca mulatta (rhesus macaque) Ntcp, wild type (from UniProt A0A0U4DKK4) R158G
response ([1]; parent: est. 11000): 20000 rfu

Saguinus oedipus (cotton-top tamarin) Ntcp, wild type (from UniProt A0A0U4EKU3) S158G
response ([1]; parent: est. 11000): 15000 rfu

Saimiri sciureus (common squirrel monkey) Ntcp, wild type G158R
response ([1]; parent: est. 18000): 11000 rfu | response ([2]; parent: est. 18000): 10000 rfu

Saimiri sciureus (common squirrel monkey) Ntcp, wild type G158S
response ([1]; parent: est. 18000): 10000 rfu | response ([2]; parent: est. 18000): 11000 rfu

Semnopithecus sp. (langur) Ntcp, wild type R158G
response ([1]; parent: est. 10000): 21000 rfu | response ([2]; parent: est. 11000): 28000 rfu

human Na+/taurocholate co-transporting polypeptide (NTCP), wild type (from UniProt Q14973) G158D
response ([1]; parent: est. 24000): 12000 rfu

human Na+/taurocholate co-transporting polypeptide (NTCP), wild type (from UniProt Q14973) G158N
response ([1]; parent: est. 24000): 12000 rfu

human Na+/taurocholate co-transporting polypeptide (NTCP), wild type (from UniProt Q14973) G158R
response ([1]; parent: est. 24000): 11000 rfu

human Na+/taurocholate co-transporting polypeptide (NTCP), wild type (from UniProt Q14973) G158S
response ([1]; parent: est. 24000): 19000 rfu

human Na+/taurocholate co-transporting polypeptide (NTCP), wild type (from UniProt Q14973) G158V
response ([1]; parent: est. 24000): 10000 rfu

From article PMC6005513
